Experimental data reported in patent US20210388087A1 (Chugai, published 2021).

Target: T1, CD3 epsilon homodimer protein (UniProt P07766 23-126)
T1 construct: immobilized on Sensor chip CM4 by amine coupling; also called CD3 (CD3 epsilon)
Assay: SPR (Biacore T200), CD3 epsilon homodimer on CM4 chip, one-arm antibody as analyte, 25 C;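 also: homodimer attached to the sensor surface via amine coupling, HBS-EP+ used as running buffer during binding runs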

T1 sequence (P07766 23-126): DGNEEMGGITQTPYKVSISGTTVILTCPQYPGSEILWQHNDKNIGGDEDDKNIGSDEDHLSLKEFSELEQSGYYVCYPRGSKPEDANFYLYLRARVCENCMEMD

ratio of amounts bound (altered form / CE115HA000) | Binder
0.24 | CE115HA000 Y97D one-arm antibody (antibody, human IgG1, kappa, L234A L235A, N297A, name in Kabat numbering) heavy: QVQLVESGGGVVQPGRSLRLSCAASGFTFSNAWMHWVRQAPGKGLEWVAQIKAKSNNYATYYAESVKGRFTISRDDSKNSLYLQMNSLKTEDTAVYYCRYVHDGAYYGVDAWGQGTTVTVSSASTKGPSVFPLAPSSKSTSGGTAALGCLVKDYFPEPVTVSWNSGALTSGVHTFPAVLQSSGLYSLSSVVTVPSSSLGTQTYICNVNHKPSNTKVDKKVEPKSCDKTHTCPPCPAPEAAGGPSVFLFPPKPKDTLMISRTPEVTCVVVDVSHEDPEVKFNWYVDGVEVHNAKTKPREEQYASTYRVVSVLTVLHQDWLNGKEYKCKVSNKALPAPIEKTISKAKGQPREPQVYTLPPSRCELTKNQVSLSCAVKGFYPSDIAVEWESNGQPENNYKTTPPVLDSDGSFFLVSKLTVDKSRWQQGNVFSCSVMHEALHNHYTQKSLSLSPDYKDDDDK EPKSSDKTHTCPPCPAPELLGGPSVFLFPPKPKDTLMISRTPEVTCVVVDVSHEDPEVKFNWYVDGVEVHNAKTKPREEQYNSTYRVVSVLTVLHQDWLNGKEYKCKVSNKALPAPIEKTISKAKGQPREPQVCTLPPSRDELTKNQVSLWCLVKGFYPSDIAVEWESNGQPENNYKTTPPVLDSDGSFFLYSKLTVDKSRWQQGNVFSCSVMHEALHNRYTQKSLSLSP light: DIVMTQSPLSLPVTPGEPASISCRSSQSLVHSNRNTYLHWYQQKPGQAPRLLIYKVSNRFSGVPDRFSGSGSGTDFTLKISRVEAEDVGVYYCGQGTQVPYTFGQGTKLEIKRTVAAPSVFIFPPSDEQLKSGTASVVCLLNNFYPREAKVQWKVDNALQSGNSQESVTEQDSKDSTYSLSSTLTLSKADYEKHKVYACEVTHQGLSSPVTKSFNRGEC
0.18 | CE115HA000 Y97S one-arm antibody (antibody, human IgG1, kappa, L234A L235A, N297A, name in Kabat numbering) heavy: QVQLVESGGGVVQPGRSLRLSCAASGFTFSNAWMHWVRQAPGKGLEWVAQIKAKSNNYATYYAESVKGRFTISRDDSKNSLYLQMNSLKTEDTAVYYCRYVHSGAYYGVDAWGQGTTVTVSSASTKGPSVFPLAPSSKSTSGGTAALGCLVKDYFPEPVTVSWNSGALTSGVHTFPAVLQSSGLYSLSSVVTVPSSSLGTQTYICNVNHKPSNTKVDKKVEPKSCDKTHTCPPCPAPEAAGGPSVFLFPPKPKDTLMISRTPEVTCVVVDVSHEDPEVKFNWYVDGVEVHNAKTKPREEQYASTYRVVSVLTVLHQDWLNGKEYKCKVSNKALPAPIEKTISKAKGQPREPQVYTLPPSRCELTKNQVSLSCAVKGFYPSDIAVEWESNGQPENNYKTTPPVLDSDGSFFLVSKLTVDKSRWQQGNVFSCSVMHEALHNHYTQKSLSLSPDYKDDDDK EPKSSDKTHTCPPCPAPELLGGPSVFLFPPKPKDTLMISRTPEVTCVVVDVSHEDPEVKFNWYVDGVEVHNAKTKPREEQYNSTYRVVSVLTVLHQDWLNGKEYKCKVSNKALPAPIEKTISKAKGQPREPQVCTLPPSRDELTKNQVSLWCLVKGFYPSDIAVEWESNGQPENNYKTTPPVLDSDGSFFLYSKLTVDKSRWQQGNVFSCSVMHEALHNRYTQKSLSLSP light: DIVMTQSPLSLPVTPGEPASISCRSSQSLVHSNRNTYLHWYQQKPGQAPRLLIYKVSNRFSGVPDRFSGSGSGTDFTLKISRVEAEDVGVYYCGQGTQVPYTFGQGTKLEIKRTVAAPSVFIFPPSDEQLKSGTASVVCLLNNFYPREAKVQWKVDNALQSGNSQESVTEQDSKDSTYSLSSTLTLSKADYEKHKVYACEVTHQGLSSPVTKSFNRGEC
0.9 | CE115HA000 Y100A one-arm antibody (antibody, human IgG1, kappa, L234A L235A, N297A, name in Kabat numbering) heavy: QVQLVESGGGVVQPGRSLRLSCAASGFTFSNAWMHWVRQAPGKGLEWVAQIKAKSNNYATYYAESVKGRFTISRDDSKNSLYLQMNSLKTEDTAVYYCRYVHYGAAYGVDAWGQGTTVTVSSASTKGPSVFPLAPSSKSTSGGTAALGCLVKDYFPEPVTVSWNSGALTSGVHTFPAVLQSSGLYSLSSVVTVPSSSLGTQTYICNVNHKPSNTKVDKKVEPKSCDKTHTCPPCPAPEAAGGPSVFLFPPKPKDTLMISRTPEVTCVVVDVSHEDPEVKFNWYVDGVEVHNAKTKPREEQYASTYRVVSVLTVLHQDWLNGKEYKCKVSNKALPAPIEKTISKAKGQPREPQVYTLPPSRCELTKNQVSLSCAVKGFYPSDIAVEWESNGQPENNYKTTPPVLDSDGSFFLVSKLTVDKSRWQQGNVFSCSVMHEALHNHYTQKSLSLSPDYKDDDDK EPKSSDKTHTCPPCPAPELLGGPSVFLFPPKPKDTLMISRTPEVTCVVVDVSHEDPEVKFNWYVDGVEVHNAKTKPREEQYNSTYRVVSVLTVLHQDWLNGKEYKCKVSNKALPAPIEKTISKAKGQPREPQVCTLPPSRDELTKNQVSLWCLVKGFYPSDIAVEWESNGQPENNYKTTPPVLDSDGSFFLYSKLTVDKSRWQQGNVFSCSVMHEALHNRYTQKSLSLSP light: DIVMTQSPLSLPVTPGEPASISCRSSQSLVHSNRNTYLHWYQQKPGQAPRLLIYKVSNRFSGVPDRFSGSGSGTDFTLKISRVEAEDVGVYYCGQGTQVPYTFGQGTKLEIKRTVAAPSVFIFPPSDEQLKSGTASVVCLLNNFYPREAKVQWKVDNALQSGNSQESVTEQDSKDSTYSLSSTLTLSKADYEKHKVYACEVTHQGLSSPVTKSFNRGEC
0.27 | CE115HA000 Y97R one-arm antibody (antibody, human IgG1, kappa, L234A L235A, N297A, name in Kabat numbering) heavy: QVQLVESGGGVVQPGRSLRLSCAASGFTFSNAWMHWVRQAPGKGLEWVAQIKAKSNNYATYYAESVKGRFTISRDDSKNSLYLQMNSLKTEDTAVYYCRYVHRGAYYGVDAWGQGTTVTVSSASTKGPSVFPLAPSSKSTSGGTAALGCLVKDYFPEPVTVSWNSGALTSGVHTFPAVLQSSGLYSLSSVVTVPSSSLGTQTYICNVNHKPSNTKVDKKVEPKSCDKTHTCPPCPAPEAAGGPSVFLFPPKPKDTLMISRTPEVTCVVVDVSHEDPEVKFNWYVDGVEVHNAKTKPREEQYASTYRVVSVLTVLHQDWLNGKEYKCKVSNKALPAPIEKTISKAKGQPREPQVYTLPPSRCELTKNQVSLSCAVKGFYPSDIAVEWESNGQPENNYKTTPPVLDSDGSFFLVSKLTVDKSRWQQGNVFSCSVMHEALHNHYTQKSLSLSPDYKDDDDK EPKSSDKTHTCPPCPAPELLGGPSVFLFPPKPKDTLMISRTPEVTCVVVDVSHEDPEVKFNWYVDGVEVHNAKTKPREEQYNSTYRVVSVLTVLHQDWLNGKEYKCKVSNKALPAPIEKTISKAKGQPREPQVCTLPPSRDELTKNQVSLWCLVKGFYPSDIAVEWESNGQPENNYKTTPPVLDSDGSFFLYSKLTVDKSRWQQGNVFSCSVMHEALHNRYTQKSLSLSP light: DIVMTQSPLSLPVTPGEPASISCRSSQSLVHSNRNTYLHWYQQKPGQAPRLLIYKVSNRFSGVPDRFSGSGSGTDFTLKISRVEAEDVGVYYCGQGTQVPYTFGQGTKLEIKRTVAAPSVFIFPPSDEQLKSGTASVVCLLNNFYPREAKVQWKVDNALQSGNSQESVTEQDSKDSTYSLSSTLTLSKADYEKHKVYACEVTHQGLSSPVTKSFNRGEC
0.11 | CE115HA000 Y97P one-arm antibody (antibody, human IgG1, kappa, L234A L235A, N297A, name in Kabat numbering) heavy: QVQLVESGGGVVQPGRSLRLSCAASGFTFSNAWMHWVRQAPGKGLEWVAQIKAKSNNYATYYAESVKGRFTISRDDSKNSLYLQMNSLKTEDTAVYYCRYVHPGAYYGVDAWGQGTTVTVSSASTKGPSVFPLAPSSKSTSGGTAALGCLVKDYFPEPVTVSWNSGALTSGVHTFPAVLQSSGLYSLSSVVTVPSSSLGTQTYICNVNHKPSNTKVDKKVEPKSCDKTHTCPPCPAPEAAGGPSVFLFPPKPKDTLMISRTPEVTCVVVDVSHEDPEVKFNWYVDGVEVHNAKTKPREEQYASTYRVVSVLTVLHQDWLNGKEYKCKVSNKALPAPIEKTISKAKGQPREPQVYTLPPSRCELTKNQVSLSCAVKGFYPSDIAVEWESNGQPENNYKTTPPVLDSDGSFFLVSKLTVDKSRWQQGNVFSCSVMHEALHNHYTQKSLSLSPDYKDDDDK EPKSSDKTHTCPPCPAPELLGGPSVFLFPPKPKDTLMISRTPEVTCVVVDVSHEDPEVKFNWYVDGVEVHNAKTKPREEQYNSTYRVVSVLTVLHQDWLNGKEYKCKVSNKALPAPIEKTISKAKGQPREPQVCTLPPSRDELTKNQVSLWCLVKGFYPSDIAVEWESNGQPENNYKTTPPVLDSDGSFFLYSKLTVDKSRWQQGNVFSCSVMHEALHNRYTQKSLSLSP light: DIVMTQSPLSLPVTPGEPASISCRSSQSLVHSNRNTYLHWYQQKPGQAPRLLIYKVSNRFSGVPDRFSGSGSGTDFTLKISRVEAEDVGVYYCGQGTQVPYTFGQGTKLEIKRTVAAPSVFIFPPSDEQLKSGTASVVCLLNNFYPREAKVQWKVDNALQSGNSQESVTEQDSKDSTYSLSSTLTLSKADYEKHKVYACEVTHQGLSSPVTKSFNRGEC
0.18 | CE115HA000 Y97G one-arm antibody (antibody, human IgG1, kappa, L234A L235A, N297A, name in Kabat numbering) heavy: QVQLVESGGGVVQPGRSLRLSCAASGFTFSNAWMHWVRQAPGKGLEWVAQIKAKSNNYATYYAESVKGRFTISRDDSKNSLYLQMNSLKTEDTAVYYCRYVHGGAYYGVDAWGQGTTVTVSSASTKGPSVFPLAPSSKSTSGGTAALGCLVKDYFPEPVTVSWNSGALTSGVHTFPAVLQSSGLYSLSSVVTVPSSSLGTQTYICNVNHKPSNTKVDKKVEPKSCDKTHTCPPCPAPEAAGGPSVFLFPPKPKDTLMISRTPEVTCVVVDVSHEDPEVKFNWYVDGVEVHNAKTKPREEQYASTYRVVSVLTVLHQDWLNGKEYKCKVSNKALPAPIEKTISKAKGQPREPQVYTLPPSRCELTKNQVSLSCAVKGFYPSDIAVEWESNGQPENNYKTTPPVLDSDGSFFLVSKLTVDKSRWQQGNVFSCSVMHEALHNHYTQKSLSLSPDYKDDDDK EPKSSDKTHTCPPCPAPELLGGPSVFLFPPKPKDTLMISRTPEVTCVVVDVSHEDPEVKFNWYVDGVEVHNAKTKPREEQYNSTYRVVSVLTVLHQDWLNGKEYKCKVSNKALPAPIEKTISKAKGQPREPQVCTLPPSRDELTKNQVSLWCLVKGFYPSDIAVEWESNGQPENNYKTTPPVLDSDGSFFLYSKLTVDKSRWQQGNVFSCSVMHEALHNRYTQKSLSLSP light: DIVMTQSPLSLPVTPGEPASISCRSSQSLVHSNRNTYLHWYQQKPGQAPRLLIYKVSNRFSGVPDRFSGSGSGTDFTLKISRVEAEDVGVYYCGQGTQVPYTFGQGTKLEIKRTVAAPSVFIFPPSDEQLKSGTASVVCLLNNFYPREAKVQWKVDNALQSGNSQESVTEQDSKDSTYSLSSTLTLSKADYEKHKVYACEVTHQGLSSPVTKSFNRGEC
